The text below walks through data of patent US20180346605A1 (Janssen / Centocor, published 2018).

In assay [1] the target is T1, His-tagged FcRn (UniProt P55899 24-297; P61769 21-119).
T1 construct: also called neonatal Fc receptor
Nature of the assay: AlphaScreen competition at pH 6.0: unlabeled competitor antibody titrated against biotinylated wild-type IgG1 (legend: mAb RSV-L) on streptavidin donor beads for His-tagged FcRn on nickel acceptor beads. (In general: In Alpha technology, singlet oxygen from a donor bead excites a nearby acceptor bead.)

For assay [2], the target named is T2, FcγRIIa soluble extracellular domain, C-terminal His-tag (UniProt P12318 34-217, limits assumed).
T2 construct: extracellular domain
T2 sequence (looked up): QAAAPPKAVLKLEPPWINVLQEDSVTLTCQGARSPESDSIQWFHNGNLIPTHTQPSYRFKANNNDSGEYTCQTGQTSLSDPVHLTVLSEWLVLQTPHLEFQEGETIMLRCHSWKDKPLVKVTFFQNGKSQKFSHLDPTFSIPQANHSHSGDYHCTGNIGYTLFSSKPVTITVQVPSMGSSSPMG
Nature of the assay: AlphaScreen competition at pH 7.2: unlabeled competitor antibody titrated against biotinylated wild-type IgG1 (legend: mAb RSV-L) on streptavidin donor beads for His-tagged FcγRIIa (10 ng/mL) on nickel acceptor beads.

Assay [3] has as its target T3, FcγRIIb soluble extracellular domain, C-terminal His-tag (UniProt P31994 43-217, limits assumed).
T3 construct: extracellular domain
T3 sequence (looked up): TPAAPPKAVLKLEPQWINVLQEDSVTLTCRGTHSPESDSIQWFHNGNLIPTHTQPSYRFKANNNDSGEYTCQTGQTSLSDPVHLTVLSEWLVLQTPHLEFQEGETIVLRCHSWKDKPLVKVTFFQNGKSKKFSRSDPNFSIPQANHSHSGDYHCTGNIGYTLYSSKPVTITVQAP
Nature of the assay: AlphaScreen competition at pH 7.2: unlabeled competitor antibody titrated against biotinylated wild-type IgG1 (legend: mAb RSV-L) on streptavidin donor beads for His-tagged FcγRIIb (14 ng/mL) on nickel acceptor beads.

Assay [4] concerns the target T4, FcγRI soluble extracellular domain, C-terminal His-tag (UniProt P12314 16-292, limits assumed).
T4 construct: extracellular domain
The assay is described as follows: AlphaScreen competition at pH 7.2: unlabeled competitor antibody titrated against biotinylated IgG1-L234A/L235A (legend: mAb RSV-L) on streptavidin donor beads for His-tagged FcγRI (200 ng/mL) on nickel acceptor beads.

The target in assay [5] is T5, FcγRIIIa soluble extracellular domain, C-terminal His-tag (UniProt P08637 17-208, limits assumed).
T5 construct: extracellular domain
The assay is described as follows: AlphaScreen competition at pH 7.2: unlabeled competitor antibody titrated against biotinylated wild-type IgG1 (legend: mAb RSV-L) on streptavidin donor beads for His-tagged FcγRIIIa (200 ng/mL) on nickel acceptor beads.

B1: bsRSV-L[Q311R] (bispecific antibody, human IgG1, kappa)
heavy 1: not shown
light 1: EIVLTQSPGTLSLSPGERATFSCRSSHSIRSRRVAWYQHKPGQAPRLVIHGVSNRASGISDRFSGSGSGTDFTLTITRVEPEDFALYYCQVYGASSYTFGQGTKLERKRTVAAPSVFIFPPSDEQLKSGTASVVCLLNNFYPREAKVQWKVDNALQSGNSQESVTEQDSKDSTYSLSSTLTLSKADYEKHKVYACEVTHQGLSSPVTKSFNRGEC
heavy 2: not shown
light 2: not shown
notes: also called bispecific anti-RSV/gp120 with asymmetrical F405L Q311R
For B1, the “IC50 (read off the curve)” value in assay [1] is roughly 50 nM; in assay [2] it was roughly 100 nM; in assay [3] it was roughly 100 nM; in assay [4], roughly 4 nM; in assay [5], roughly 80 nM.

B2: bsRSV-L[TLQ] (bispecific antibody, human IgG1, kappa)
heavy 1: not shown
light 1: EIVLTQSPGTLSLSPGERATFSCRSSHSIRSRRVAWYQHKPGQAPRLVIHGVSNRASGISDRFSGSGSGTDFTLTITRVEPEDFALYYCQVYGASSYTFGQGTKLERKRTVAAPSVFIFPPSDEQLKSGTASVVCLLNNFYPREAKVQWKVDNALQSGNSQESVTEQDSKDSTYSLSSTLTLSKADYEKHKVYACEVTHQGLSSPVTKSFNRGEC
heavy 2: not shown
light 2: not shown
notes: also called bispecific anti-RSV/gp120 with asymmetrical F405L/T307P/L309Q/Q311R
With B2, the “IC50 (read off the curve)” value in assay [1] was roughly 100 nM; in assay [2], roughly 100 nM; in assay [4], roughly 4 nM; in assay [5] it was roughly 80 nM.
